Measured values: publication PMC4824073, “Ribonucleoprotein particles of bacterial small non-coding RNA IsrA (IS61 or McaS) and its interaction with RNA polymerase core may link transcription to mRNA fate”

Legend:
[1] = biological target: RNAP core enzyme;sigma70 (Escherichia coli?;Escherichia coli?, UniProt P0A7Z4;P0A8V2;P0A8T7;P00579 1-329;1-1342;1-1407;1-613, |); assay: EMSA; heparin added after complex formation (heparin-resistant); EMSA (Figs 3B, 4): 1x buffer 15 mM Tris-HCl pH 8, 100 mM KCl, 1 mM MgCl2, 1 mM DTT, 1 ug yeast RNA, 37 C 10-20 min, then heparin on ice; Fig 3A as in ref 29 without yeast RNA; pull-down: 10 mM Tris-HCl pH 7.8, 200 mM KCl, 1 mM MgCl2, 5% glycerol, 1 mM DTT, 4 C, heparin 100 ug/ml wash; conditions: protein: native;recombinant; tags: ;; chain copies: 2;1;1;1; label: 32P; three stem-loops
[2] = biological target: RNAP core enzyme (UniProt P0A7Z4;P0A8V2;P0A8T7 1-329;1-1342;1-1407); assay: as above; conditions: protein: native; chain copies: 2;1;1; label: 32P; three stem-loops
[3] = biological target: RNAP (core or holo not stated) (UniProt P0A7Z4;P0A8V2;P0A8T7 1-329;1-1342;1-1407); assay: competition; unlabeled IsrA 15-fold excess vs labeled IsrA; yeast RNA, heparin after; EMSA (Figs 3B, 4): 1x buffer 15 mM Tris-HCl pH 8, 100 mM KCl, 1 mM MgCl2, 1 mM DTT, 1 ug yeast RNA, 37 C 10-20 min, then heparin on ice; Fig 3A as in ref 29 without yeast RNA; pull-down: 10 mM Tris-HCl pH 7.8, 200 mM KCl, 1 mM MgCl2, 5% glycerol, 1 mM DTT, 4 C, heparin 100 ug/ml wash; conditions: protein: native; chain copies: 2;1;1; label: 32P; three stem-loops

Measured: binding result

Sequence of RNAP (core or holo not stated) (P0A7Z4 whole entry, chain 1 of 3): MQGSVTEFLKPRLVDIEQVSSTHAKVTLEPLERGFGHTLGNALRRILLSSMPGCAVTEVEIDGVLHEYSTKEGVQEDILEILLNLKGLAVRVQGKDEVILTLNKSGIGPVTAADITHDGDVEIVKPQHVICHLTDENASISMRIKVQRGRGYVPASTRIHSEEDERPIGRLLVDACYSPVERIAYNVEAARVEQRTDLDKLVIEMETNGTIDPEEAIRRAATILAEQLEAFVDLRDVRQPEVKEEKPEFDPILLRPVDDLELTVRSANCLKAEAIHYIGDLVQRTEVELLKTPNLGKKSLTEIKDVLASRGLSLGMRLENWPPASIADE
Sequence of RNAP (core or holo not stated) (P0A8V2 whole entry, chain 2 of 3): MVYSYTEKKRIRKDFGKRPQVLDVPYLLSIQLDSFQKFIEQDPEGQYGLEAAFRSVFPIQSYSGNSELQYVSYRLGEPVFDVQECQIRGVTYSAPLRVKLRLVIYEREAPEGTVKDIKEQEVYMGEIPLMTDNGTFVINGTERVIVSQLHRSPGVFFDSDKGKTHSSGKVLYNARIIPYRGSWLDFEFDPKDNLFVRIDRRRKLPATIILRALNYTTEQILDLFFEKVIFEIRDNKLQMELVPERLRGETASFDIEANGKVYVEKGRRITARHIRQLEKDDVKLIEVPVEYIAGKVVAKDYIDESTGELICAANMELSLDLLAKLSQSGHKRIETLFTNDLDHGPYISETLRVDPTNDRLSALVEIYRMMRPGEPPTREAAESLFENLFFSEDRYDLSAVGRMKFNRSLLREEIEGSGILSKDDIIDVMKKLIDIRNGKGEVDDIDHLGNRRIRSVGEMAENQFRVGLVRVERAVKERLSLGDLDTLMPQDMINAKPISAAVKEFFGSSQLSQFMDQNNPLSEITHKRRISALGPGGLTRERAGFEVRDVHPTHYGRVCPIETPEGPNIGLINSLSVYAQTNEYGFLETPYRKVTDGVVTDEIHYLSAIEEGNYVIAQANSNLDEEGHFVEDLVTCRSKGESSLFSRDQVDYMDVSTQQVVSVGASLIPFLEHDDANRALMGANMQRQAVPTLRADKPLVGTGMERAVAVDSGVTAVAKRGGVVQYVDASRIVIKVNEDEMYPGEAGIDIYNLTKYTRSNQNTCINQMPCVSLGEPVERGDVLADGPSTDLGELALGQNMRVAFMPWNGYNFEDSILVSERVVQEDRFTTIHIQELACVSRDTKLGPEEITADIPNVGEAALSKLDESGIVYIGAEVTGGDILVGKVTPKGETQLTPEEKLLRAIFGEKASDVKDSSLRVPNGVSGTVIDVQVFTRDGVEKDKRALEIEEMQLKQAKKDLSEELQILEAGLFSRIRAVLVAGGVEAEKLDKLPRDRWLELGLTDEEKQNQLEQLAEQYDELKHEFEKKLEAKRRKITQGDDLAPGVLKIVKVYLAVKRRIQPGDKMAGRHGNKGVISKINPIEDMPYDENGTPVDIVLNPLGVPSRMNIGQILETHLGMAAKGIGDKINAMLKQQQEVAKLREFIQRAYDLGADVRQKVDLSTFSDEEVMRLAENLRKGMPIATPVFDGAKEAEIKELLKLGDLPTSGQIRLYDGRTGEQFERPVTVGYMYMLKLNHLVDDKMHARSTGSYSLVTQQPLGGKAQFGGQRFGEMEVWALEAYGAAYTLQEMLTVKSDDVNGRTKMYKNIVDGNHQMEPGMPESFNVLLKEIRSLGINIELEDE
Sequence of RNAP (core or holo not stated) (P0A8T7 whole entry, chain 3 of 3): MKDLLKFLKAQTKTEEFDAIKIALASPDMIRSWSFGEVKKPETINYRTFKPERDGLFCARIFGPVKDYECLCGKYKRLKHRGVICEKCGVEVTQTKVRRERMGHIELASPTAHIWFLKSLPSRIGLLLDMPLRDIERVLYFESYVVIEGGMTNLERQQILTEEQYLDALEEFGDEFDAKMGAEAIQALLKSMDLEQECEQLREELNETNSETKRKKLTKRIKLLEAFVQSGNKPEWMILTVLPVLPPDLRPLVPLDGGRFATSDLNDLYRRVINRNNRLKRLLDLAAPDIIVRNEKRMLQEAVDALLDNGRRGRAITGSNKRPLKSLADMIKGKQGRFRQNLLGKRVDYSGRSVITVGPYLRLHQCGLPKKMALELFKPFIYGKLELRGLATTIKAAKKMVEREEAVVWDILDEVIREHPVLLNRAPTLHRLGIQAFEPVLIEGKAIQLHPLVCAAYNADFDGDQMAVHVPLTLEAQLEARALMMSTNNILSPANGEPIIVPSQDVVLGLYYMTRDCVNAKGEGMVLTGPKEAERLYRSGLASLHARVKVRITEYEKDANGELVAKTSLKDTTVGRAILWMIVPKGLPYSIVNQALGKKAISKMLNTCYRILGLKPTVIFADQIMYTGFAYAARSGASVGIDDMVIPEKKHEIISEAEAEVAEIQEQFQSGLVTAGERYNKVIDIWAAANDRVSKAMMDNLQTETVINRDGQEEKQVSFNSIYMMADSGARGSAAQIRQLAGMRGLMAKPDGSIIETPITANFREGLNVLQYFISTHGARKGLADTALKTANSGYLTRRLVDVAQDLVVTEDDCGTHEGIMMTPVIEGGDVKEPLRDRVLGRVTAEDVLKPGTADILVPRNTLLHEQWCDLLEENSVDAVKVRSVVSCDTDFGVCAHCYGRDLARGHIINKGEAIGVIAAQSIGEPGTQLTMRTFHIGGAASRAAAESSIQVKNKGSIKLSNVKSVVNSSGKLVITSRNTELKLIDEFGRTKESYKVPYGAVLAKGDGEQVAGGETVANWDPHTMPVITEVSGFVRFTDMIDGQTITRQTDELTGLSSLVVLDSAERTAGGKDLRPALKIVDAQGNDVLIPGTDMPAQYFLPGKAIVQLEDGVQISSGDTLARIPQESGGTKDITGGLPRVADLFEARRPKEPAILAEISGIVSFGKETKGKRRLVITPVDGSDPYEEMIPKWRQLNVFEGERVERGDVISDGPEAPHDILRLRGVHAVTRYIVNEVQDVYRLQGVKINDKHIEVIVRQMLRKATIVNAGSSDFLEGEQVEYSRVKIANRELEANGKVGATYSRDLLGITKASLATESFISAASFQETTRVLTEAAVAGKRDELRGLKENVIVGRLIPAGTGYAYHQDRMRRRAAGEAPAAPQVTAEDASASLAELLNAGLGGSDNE

B1: IsrA (IS61, McaS) (structured_RNA)
RNA: ACCGGCGCAGAGGAGACAAUGCCGGAUUUAAGACGCGGAUGCACUGCUGUGUGUACUGUAGAGUCUGGCGGAUGUCGACAGACUCUAUUUUUUU
binds: [1] | [2] | [3]
